Source: patent US20120195897A1 (US Dept. of Health and Human Services, published 2012)

Target: T1, IGF ligand 2 (IGF-2) (human, UniProt P01344 25-91)
T1 construct: Used as antigen in ELISA and as stimulus (10 nM) on MCF-7 cells; also called insulin-like growth factor 2
Assay: ELISA

T1 sequence (P01344 25-91 limits assumed): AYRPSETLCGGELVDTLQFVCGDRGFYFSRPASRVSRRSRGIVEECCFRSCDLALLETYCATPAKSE

B1: m636 (VHH)
VHH: QVQLVQSGGGLVQPGGSLRLSCAASYYSLQHDNFPYTFMSWVRQAPGQRLEWVSGISGSGGSTYYADSVKGRFTISRDNSKNTLYLQMNTLRAEDTAMYYCARIRWLQDLDYWGQGTLVTVSS
notes: Human VH single domain antibody (dAb) selected from phage library m91; also called dAb m636; IGF-2 dAb
binding result: binds
